This data set addresses HBV core protein (Cp) dimer (Hepatitis B virus (strain NC_003977.1, subtype ayw?)) (UniProt P03146). The experiment in a line: NCP assembly, SEC-MALLS. To be noted: 20 mM HEPES pH 7.5, 250 mM NaCl, 5 mM DTT, up to 0.15 M GuHCl, ~20 C; 1 nM RNA, Cp dimer titrated to 1.2 uM.

HBV core protein (Cp) dimer (Hepatitis B virus (strain NC_003977.1, subtype ayw?)), sequence (P03146 whole entry): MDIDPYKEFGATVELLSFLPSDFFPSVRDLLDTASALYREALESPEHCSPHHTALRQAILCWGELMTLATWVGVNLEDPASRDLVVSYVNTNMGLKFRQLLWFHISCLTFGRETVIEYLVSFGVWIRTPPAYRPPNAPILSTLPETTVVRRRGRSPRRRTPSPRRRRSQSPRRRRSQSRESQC

As for HBV JQ707375.1 gRNA (pgRNA) wild type, the binding signal (% RNA yield after RNase A) was found to be 81.

The record behind these values is PMC8677749.
